Data: publication PMC9898751 (The Journal of Biological Chemistry, 2022)
No end group written: not given here.

Target: T1, PHF2(1–70), PHD domain of human PHF2 (residues 1–70) (human, UniProt O75151 1-70)
T1 sequence: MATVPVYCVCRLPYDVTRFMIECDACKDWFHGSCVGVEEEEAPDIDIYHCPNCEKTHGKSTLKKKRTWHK
Assay: ITC

B1: H3(1-12)K4me3 peptide (12-mer of the N-terminal tail of histone H3, trimethylated at lysine 4) (peptide)
peptide: ARTK(me3)QTARKSTG
  Kd: 640 nM
